# Like-named read-outs stand apart in the source and are kept apart here.
# T1: TbGMPR (guanosine 5′-monophosphate reductase) (Trypanosoma brucei, UniProt Q57ZS7)
# T1 sequence (Q57ZS7 1-491): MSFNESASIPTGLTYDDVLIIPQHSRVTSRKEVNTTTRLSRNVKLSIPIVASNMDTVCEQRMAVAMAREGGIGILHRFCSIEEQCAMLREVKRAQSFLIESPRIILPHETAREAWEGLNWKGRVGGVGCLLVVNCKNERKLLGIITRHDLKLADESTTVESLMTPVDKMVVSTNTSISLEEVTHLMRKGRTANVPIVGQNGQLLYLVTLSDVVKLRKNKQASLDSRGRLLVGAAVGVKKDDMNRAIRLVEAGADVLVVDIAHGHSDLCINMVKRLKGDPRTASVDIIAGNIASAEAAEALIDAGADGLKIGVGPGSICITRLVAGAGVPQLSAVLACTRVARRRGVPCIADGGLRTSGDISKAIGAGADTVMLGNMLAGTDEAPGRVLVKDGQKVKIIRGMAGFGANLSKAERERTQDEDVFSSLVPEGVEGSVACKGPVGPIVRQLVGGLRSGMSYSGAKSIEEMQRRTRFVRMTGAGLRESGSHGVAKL
# B1: TbGMPR (guanosine 5′-monophosphate reductase) (Trypanosoma brucei brucei TREU927) (protein)
# chain: MSFNESASIPTGLTYDDVLIIPQHSRVTSRKEVNTTTRLSRNVKLSIPIVASNMDTVCEQRMAVAMAREGGIGILHRFCSIEEQCAMLREVKRAQSFLIESPRIILPHETAREAWEGLNWKGRVGGVGCLLVVNCKNERKLLGIITRHDLKLADESTTVESLMTPVDKMVVSTNTSISLEEVTHLMRKGRTANVPIVGQNGQLLYLVTLSDVVKLRKNKQASLDSRGRLLVGAAVGVKKDDMNRAIRLVEAGADVLVVDIAHGHSDLCINMVKRLKGDPRTASVDIIAGNIASAEAAEALIDAGADGLKIGVGPGSICITRLVAGAGVPQLSAVLACTRVARRRGVPCIADGGLRTSGDISKAIGAGADTVMLGNMLAGTDEAPGRVLVKDGQKVKIIRGMAGFGANLSKAERERTQDEDVFSSLVPEGVEGSVACKGPVGPIVRQLVGGLRSGMSYSGAKSIEEMQRRTRFVRMTGAGLRESGSHGVAKL
# notes: wild-type, C-terminal histidine-tag
# Columns and labels:
# [1] = target: T2, TbGMPR (guanosine 5′-monophosphate reductase) (Trypanosoma brucei, UniProt Q57ZS7, W115R); assay: tryptophan fluorescence quenching; assay type: binding
# T2 construct: gene Tb05.1P6.110; full-length, C-terminal histidine-tag
# [2] = target: T1, TbGMPR (guanosine 5′-monophosphate reductase); assay: biochemical; design: gene Tb05.1P6.110
# [3] = target: T2, TbGMPR (guanosine 5′-monophosphate reductase); assay: tryptophan fluorescence quenching (no Kd obtained); assay type: binding
# [4] = target: T1, TbGMPR (guanosine 5′-monophosphate reductase); assay: co-crystal structure at […] Å; activation of purified enzyme (EC50); assay type: biochemical; design: gene Tb05.1P6.110; wild-type, C-terminal histidine-tag
# [5] = target: TbGMPR C318A (inactive mutant of Trypanosoma brucei GMP reductase) (Trypanosoma brucei (ILTat 1.4)); assay: crystal structure; TbGMPR C318A without ligand (C318A apo), 2.80 Å; sitting drop, 4 °C; oligomer from crystal packing by PISA
# [6] = target: TbGMPR C318A (inactive mutant of Trypanosoma brucei GMP reductase) (Trypanosoma brucei (ILTat 1.4)); assay: crystal structure; TbGMPR C318A co-crystallised with up to 3 mM GMP (C318A/GMP), 1.90 Å; 4 °C
# [7] = target: TbGMPR∆CBS (Trypanosoma brucei GMP reductase lacking the CBS domain) (Trypanosoma brucei (ILTat 1.4)); assay: SEC-SAXS
# [8] = target: Trypanosoma brucei guanosine 5'-monophosphate reductase, wild type (Trypanosoma brucei (ILTat 1.4)); assay: SEC-SAXS; no ligand; 4 or 12 mg/mL protein in 50 mM Tris-HCl pH 7.8, 0.5 M KCl, 3 mM EDTA, 1 mM DTT; Shodex KW403-4F; 20 °C; mass from volume of correlation, fractions of tetramer and octamers fitted by OLIGOMER
# [9] = target: Trypanosoma brucei guanosine 5'-monophosphate reductase, wild type (Trypanosoma brucei (ILTat 1.4)); assay: SEC-SAXS; with 10 mM ATP; 4 or 12 mg/mL protein in 50 mM Tris-HCl pH 7.8, 0.5 M KCl, 3 mM EDTA, 1 mM DTT; 20 °C; fractions fitted by OLIGOMER; octamer to tetramers
# [10] = target: Trypanosoma brucei guanosine 5'-monophosphate reductase, wild type (Trypanosoma brucei (ILTat 1.4)); assay: crystal structure; wild-type TbGMPR co-crystallised with up to 1 mM GTP (TbGMPR/GTP), 2.50 Å; 20 °C
# [11] = target: Trypanosoma brucei guanosine 5'-monophosphate reductase, wild type (Trypanosoma brucei (ILTat 1.4)); assay: SEC-SAXS; with 10 mM GMP; 4 or 12 mg/mL protein in 50 mM Tris-HCl pH 7.8, 0.5 M KCl, 3 mM EDTA, 1 mM DTT; 20 °C; fractions fitted by OLIGOMER
# [12] = target: Trypanosoma brucei guanosine 5'-monophosphate reductase, wild type (Trypanosoma brucei (ILTat 1.4)); assay: SEC-SAXS; with 10 mM GTP; 4 or 12 mg/mL protein in 50 mM Tris-HCl pH 7.8, 0.5 M KCl, 3 mM EDTA, 1 mM DTT; 20 °C; fractions fitted by OLIGOMER
# purified protein = substrate: Nc1nc2c(ncn2[C@@H]2O[C@H](COP(=O)(O)O)[C@@H](O)[C@H]2O)c(=O)[nH]1; assay: purified protein; assay type: biochemical, Trypanosoma brucei; conditions: NADPH active site; positive cooperativity via CBS domain
molecule,measurement,setting,value
Nc1ncnc2c1ncn2[C@@H]1O[C@H](COP(=O)(O)OP(=O)(O)OP(=O)(O)O)[C@@H](O)[C@H]1O [ATP],Kd,[1],194 ± 45 µM
same,EC50,[2],160 µM
Nc1nc2c(ncn2[C@@H]2O[C@H](COP(=O)(O)O)[C@@H](O)[C@H]2O)c(=O)[nH]1 [GMP],tryptophan fluorescence quenching (no Kd obtained),[3],"blue-shifting of the emission spectra of the protein with either GTP or GMP, but not with ATP"
Nc1nc2c(ncn2[C@@H]2O[C@H](COP(=O)(O)OP(=O)(O)OP(=O)(O)O)[C@@H](O)[C@H]2O)c(=O)[nH]1 [GTP],Kd,[1]; read-out: Kd,6.75 ± 0.58 µM
same,EC50,[4],4.8 µM
TbGMPR C318A (inactive mutant of Trypanosoma brucei GMP reductase) (enzyme),stoichiometry N,[5],8
same,stoichiometry N,[6],8
TbGMPR∆CBS (Trypanosoma brucei GMP reductase lacking the CBS domain) (enzyme),stoichiometry N,[7],4
"Trypanosoma brucei guanosine 5'-monophosphate reductase, wild type (enzyme)","Octamer, relaxed (%)",[8],53.2%
same,"Octamer, twisted (%)",[8],46.8%
same,Tetramer (%),[8],0%
same,stoichiometry N,[8],8
same,"Octamer, relaxed (%)",[9],28%
same,"Octamer, twisted (%)",[9],11.2%
same,Tetramer (%),[9],60.8%
same,stoichiometry N,[10],8
same,"Octamer, relaxed (%)",[11],0%
same,"Octamer, twisted (%)",[11],97.8%
same,Tetramer (%),[11],2.2%
same,"Octamer, relaxed (%)",[12],0%
same,"Octamer, twisted (%)",[12],100%
same,Tetramer (%),[12],0%
B1,K0.5,purified protein,184 ± 3 µM
same,kcat,purified protein,0.2783 ± 0.0025 s⁻¹
same,kcat/Km,purified protein,1520 M⁻¹ s⁻¹

# Source: paper PMC7160140, “Allosteric regulation accompanied by oligomeric state changes of Trypanosoma brucei GMP reductase through cystathionine-β-synthase domain” (Nature Communications, 2020)
